Experiments:
Assay type in all cases: cell-based, human
β-catenin signaling [1] = assay: 6xTCF-luciferase reporter assay in STF-293 cells with lung tumor cell-conditioned medium (LT); details: Fc proteins 10 μg/ml, antibodies 40 μg/ml
Experimental: To prepare cell suspensions, fresh human lung adenocarcinoma xenograft tumors (lung tumor #1 in Table 2) propagated in NOD/SCID mice were minced and digested in medium 199 (Invitrogen, Carlsbad, Calif.) containing 300 U/ml collagenase type 3 (Worthington, Lakewood, N.J.) and 200 U/ml DNase I (Worthington, Lakewood, N.J.) for 1 to 2 hours at 37° C. The lung tumor cells were filtered through a 40 μm nylon strainer (BD Falcon, Franklin Lakes, N.J.), and spun down at 82×g for 5 minutes. Red blood cells were lysed in ACK buffer (0.8% ammonium chloride, 0.1 mM EDTA, 10 mM sodium bicarbonate, […]), washed, and centrifuged at 150×g for 5 minutes in medium consisting of HBSS (Mediatech, Manassas, Va.), 25 mM HEPES buffer (Mediatech, Manassas, Va.) and 2% heat-inactivated fetal bovine serum (HI-FBS; Invitrogen, Carlsbad, Calif.). Dead cells and debris were removed by centrifugation on a cushion of HI-FBS at 82×g for 8 minutes. […]
STF-293 cells are stably transfected with a 6×TCF-luciferase reporter vector. […] The cells were incubated for 16 hours and luciferase activity was measured using Steady-Glo® Luciferase Assay System according to the manufacturer's instructions (Promega, Madison, Wis.). […]

β-catenin signaling [2] = assay: Co-culture 6xTCF-luciferase assay in STF-293 cells with lung (LU2, LU25) and ovarian (OV38) tumor cells and supernatants; details: tumor cells LU2, LU25, OV38; 10 μg/ml
Experimental: Similar experiments were undertaken using co-culture assays using lung tumor cell-conditioned medium and ovarian tumor cell-conditioned medium. As described above, freshly processed tumor cells depleted of stroma cells were cultured overnight. Culture medium and cells were transferred to STF-293 cells with or without Wnt3a L-cell-conditioned medium. LGR5-Fc fusion protein, a FZD8-Fc fusion protein, or a control Fc fusion protein was added (10 μg/ml). The cells were incubated for 20 hours and luciferase activity was measured as described above.

β-catenin signaling [3] = assay: TOPflash luciferase assay in HEK-293 cells: inhibition of RSPO activity by soluble LGR5; details: LGR5-Fc 20 to 0.02 μg/ml; controls 20 μg/ml
Experimental: Conditioned medium from human lung tumor #1 cells was prepared as described in Example 3 and soluble LGR5-Fc and RSPO2-Fc were produced as described in Example 2.
HEK-293 cells were transfected with a 6×TCF-luciferase reporter vector (TOPflash, Millipore, Billerica, Mass.). After 24-48 hrs, the transfected cells were incubated with medium containing 25% lung tumor cell-conditioned medium plus 25% Wnt3a-L cell-conditioned medium or medium containing RSPO2 (1 Ong/ml) plus 25% Wnt3a-L cell-conditioned medium. Soluble LGR5 was added to the cells in 4-fold serially dilutions at 20 μg/ml to 0.02 μg/ml. Soluble Jag-Fc protein was used as a negative control at 20 μg/ml and FZD8-Fc protein was used as a positive control at 20 μg/ml. The cells were incubated for 16 hours and luciferase activity was measured using Steady-Glo® Luciferase Assay System according to the manufacturer's instructions (Promega, Madison, Wis.).

β-catenin signaling [4] = assay: Luciferase assay in STF-293 cells with LU2 cells, lung tumor cell-conditioned medium and Wnt3a-L cell-conditioned medium; details: increasing concentrations, 50 to 0.0006 μg/ml
Experimental: Conditioned medium from human lung tumor LU2 cells was prepared as described in Example 3 and soluble LGR5-Fc was produced as described in Example 2.
STF-293 cells were incubated with LU2 cells plus 25% lung tumor cell-conditioned medium plus 25% Wnt3a-L cell-conditioned medium. Antibody 130M23 and soluble LGR5-Fc were added to the cells in 5-fold serially dilutions from 50 μg/ml to 0.0006 μg/ml. An irrelevant monoclonal antibody, similarly diluted, and a control Fc fusion protein (50 ug/ml) were used as negative controls. The cells were incubated for 20 hours and luciferase activity was measured using Steady-Glo® Luciferase Assay System according to the manufacturer's instructions (Promega, Madison, Wis.).

B1: LGR5-Fc: soluble fusion protein: amino acids 22-564 of human LGR5 ligated to human Fc (protein)
chain: GSSPRSGVLLRGCPTHCHCEPDGRMLLRVDCSDLGLSELPSNLSVFTSYLDLSMNNISQLLPNPLPSLRFLEELRLAGNALTYIPKGAFTGLYSLKVLMLQNNQLRHVPTEALQNLRSLQSLRLDANHISYVPPSCFSGLHSLRHLWLDDNALTEIPVQAFRSLSALQAMTLALNKIHHIPDYAFGNLSSLVVLHLHNNRIHSLGKKCFDGLHSLETLDLNYNNLDEFPTAIRTLSNLKELGFHSNNIRSIPEKAFVGNPSLITIHFYDNPIQFVGRSAFQHLPELRTLTLNGASQITEFPDLTGTANLESLTLTGAQISSLPQTVCNQLPNLQVLDLSYNLLEDLPSFSVCQKLQKIDLRHNEIYEIKVDTFQQLLSLRSLNLAWNKIAIIHPNAFSTLPSLIKLDLSSNLLSSFPITGLHGLTHLKLTGNHALQSLISSENFPELKVIEMPYAYQCCAFGVCENAYKISNQWNKGDNSSMDDLHKKDAGMFQAQDERDLEDFLLDFEEDLKALHSVQCSPSPGPFKPCEHLLDGWLIRIGV
modifications: left off: a dimerising Fc or GST
notes: soluble fusion protein: amino acids 22-564 of human LGR5 ligated to human Fc
- inhibition of the LT activity potentiating Wnt3a-induced β-catenin activity (β-catenin signaling [1]; LT plus Wnt3a L-cell-conditioned medium): inhibited
- inhibition of LT medium-induced β-catenin signaling (β-catenin signaling [1]; absence of Wnt3a): reducing the response to almost control levels
- reduction of tumor-derived β-catenin activity (β-catenin signaling [2]): strongly reduced
- induction of luciferase activity by RSPO2-Fc plus Wnt3a-conditioned medium (β-catenin signaling [3]): reduced
- induction of luciferase activity by lung tumor cell-conditioned medium and Wnt3a-conditioned medium (β-catenin signaling [3]): reduced
- induction of luciferase activity by lung tumor cell-conditioned medium and Wnt3a-conditioned medium (β-catenin signaling [4]): reduced

— patent publication US9644034B2, “Anti-RSPO2 antibodies and uses thereof” (OncoMed Pharmaceuticals, Inc., priority 2011, dated 2017)
